Literature values as cited in paper PMC7855609.

Key:
[1] = target: Asp38 (UniProt position 104, FKVVFDTGSSN); experiment: kinetics; settings: Enzyme turning over the wild-type peptide substrate PTDP (His at P2)
[2] = target: Asp226 (UniProt position 292, CLALVDTGASY); experiment: kinetics; settings: Enzyme turning over the wild-type peptide substrate PTDP (His at P2)

Renin (recombinant human renal renin) (Homo sapiens)
pKa [1]: 5.3 | pKa [2]: 6.3
